To fix the notation:
T1: recombinant human lymphotoxin-α homotrimer (human LTα3) (human, UniProt P01374 35-205)
T1 construct: Coated on plates in the ELISAs; also called rhLTα; lymphotoxin-α3 trimer
T1 sequence (looked up): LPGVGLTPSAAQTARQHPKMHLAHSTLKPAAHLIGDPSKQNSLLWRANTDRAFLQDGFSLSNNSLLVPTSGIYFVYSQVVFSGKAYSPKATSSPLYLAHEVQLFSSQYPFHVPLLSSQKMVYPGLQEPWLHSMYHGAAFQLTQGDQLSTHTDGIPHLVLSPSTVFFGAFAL

B1: 3F12 version 26 (3F12.v5 with S56A, CDR-H2) (antibody, IgG1, V domains shown)
VH: EVQLVESGGGLVQPGGSLRLSCAASGYTFSSYWIEWVRQAPGKGLEWVGEISPGSGATNYNEEFKGRATFSADNSKNTAYLQMNSLRAEDTAVYYCADGYHGYWGQGTLVTVSS
VL: DIQMTQSPSSLSASVGDRVTITCKSSQSLLYSTNQKNFLAWYQQKPGKAPKLLIYWASTRDSGVPSRFSGSGSGTDFTLTISSLQPEDFATYYCQQYYSYPRTFGQGTKVEIK
notes: Alanine-scan variant of 3F12.v5; human kappa / IgG1
B2: 3F12 version 29 (3F12.v5 with N60A, CDR-H2) (antibody, IgG1, V domains shown)
VH: EVQLVESGGGLVQPGGSLRLSCAASGYTFSSYWIEWVRQAPGKGLEWVGEISPGSGSTNYAEEFKGRATFSADNSKNTAYLQMNSLRAEDTAVYYCADGYHGYWGQGTLVTVSS
VL: DIQMTQSPSSLSASVGDRVTITCKSSQSLLYSTNQKNFLAWYQQKPGKAPKLLIYWASTRDSGVPSRFSGSGSGTDFTLTISSLQPEDFATYYCQQYYSYPRTFGQGTKVEIK
notes: as for B1
B3: 3F12 version 27 (3F12.v5 with N58A, CDR-H2) (antibody, IgG1, V domains shown)
VH: EVQLVESGGGLVQPGGSLRLSCAASGYTFSSYWIEWVRQAPGKGLEWVGEISPGSGSTAYNEEFKGRATFSADNSKNTAYLQMNSLRAEDTAVYYCADGYHGYWGQGTLVTVSS
VL: DIQMTQSPSSLSASVGDRVTITCKSSQSLLYSTNQKNFLAWYQQKPGKAPKLLIYWASTRDSGVPSRFSGSGSGTDFTLTISSLQPEDFATYYCQQYYSYPRTFGQGTKVEIK
notes: as for B1
B4: 3F12 version 31 (3F12.v5 with E62A, CDR-H2) (antibody, IgG1, V domains shown)
VH: EVQLVESGGGLVQPGGSLRLSCAASGYTFSSYWIEWVRQAPGKGLEWVGEISPGSGSTNYNEAFKGRATFSADNSKNTAYLQMNSLRAEDTAVYYCADGYHGYWGQGTLVTVSS
VL: DIQMTQSPSSLSASVGDRVTITCKSSQSLLYSTNQKNFLAWYQQKPGKAPKLLIYWASTRDSGVPSRFSGSGSGTDFTLTISSLQPEDFATYYCQQYYSYPRTFGQGTKVEIK
notes: as for B1
B5: 3F12 version 30 (3F12.v5 with E61A, CDR-H2) (antibody, IgG1, V domains shown)
VH: EVQLVESGGGLVQPGGSLRLSCAASGYTFSSYWIEWVRQAPGKGLEWVGEISPGSGSTNYNAEFKGRATFSADNSKNTAYLQMNSLRAEDTAVYYCADGYHGYWGQGTLVTVSS
VL: DIQMTQSPSSLSASVGDRVTITCKSSQSLLYSTNQKNFLAWYQQKPGKAPKLLIYWASTRDSGVPSRFSGSGSGTDFTLTISSLQPEDFATYYCQQYYSYPRTFGQGTKVEIK
notes: as for B1
B6: 3F12 version 28 (3F12.v5 with Y59A, CDR-H2) (antibody, IgG1, V domains shown)
VH: EVQLVESGGGLVQPGGSLRLSCAASGYTFSSYWIEWVRQAPGKGLEWVGEISPGSGSTNANEEFKGRATFSADNSKNTAYLQMNSLRAEDTAVYYCADGYHGYWGQGTLVTVSS
VL: DIQMTQSPSSLSASVGDRVTITCKSSQSLLYSTNQKNFLAWYQQKPGKAPKLLIYWASTRDSGVPSRFSGSGSGTDFTLTISSLQPEDFATYYCQQYYSYPRTFGQGTKVEIK
notes: as for B1
B7: phage-displayed 2C8.v2 Fab, wild-type phagemid clone (Fab, V domains shown)
VH: EVQLVESGGGLVQPGGSLRLSCAASGYTFTSYVIHWVRQAPGKGLEWVGYNNPYNDGTNYNEKFKGRATISSDKSKNTAYLQMNSLRAEDTAVYYCSRPTMLPWFAYWGQGTLVTVSS
VL: DIQMTQSPSSLSASVGDRVTITCRASQAVSSAVAWYQQKPGKAPKLQIYSASHRYTGVPSRFSGSGSGTDFTLTISSLQPEDFATYYCQQHYSTPWTFGQGTKVEIKR
notes: also called wild-type 2C8.v2
B8: phage-displayed 2C8 Fab clone G12 (Fab, V domains shown)
VH: EVQLVESGGGLVQPGGSLRLSCAASGYTFTSYVIHWVRQAPGKGLEWVGYNNPYNDGTNYNEKFKGRATISSDKSKNTAYLQMNSLRAEDTAVYYCSRPTMLPWFAYWGQGTLVTVSS
VL: DIQMTQSPSSLSASVGDRVTITCRASQAVSSAVAWYQQKPGKAPKLQIYSASHRYTGVPSRFSGSGSGTDFTLTISSLQPEDFATYYCQKTFSTPWTFGQGTKVEIKR
B9: phage-displayed 2C8 Fab clone D8 (Fab, V domains shown)
VH: EVQLVESGGGLVQPGGSLRLSCAASGYTFTSYVIHWVRQAPGKGLEWVGYNNPYNDGTNYNEKFKGRATISSDKSKNTAYLQMNSLRAEDTAVYYCSRPTMLPWFAYWGQGTLVTVSS
VL: DIQMTQSPSSLSASVGDRVTITCRASQAVSSAVAWYQQKPGKAPKLQIYSASHRYTGVPSRFSGSGSGTDFTLTISSLQPEDFATYYCQQFYSVPWTFGQGTKVEIKR
B10: phage-displayed 2C8 Fab clone G7 (Fab, V domains shown)
VH: EVQLVESGGGLVQPGGSLRLSCAASGYTFTSYVIHWVRQAPGKGLEWVGYNNPYNDGTNYNEKFKGRATISSDKSKNTAYLQMNSLRAEDTAVYYCSRPTMLPWFAYWGQGTLVTVSS
VL: DIQMTQSPSSLSASVGDRVTITCRASQAVSSAVAWYQQKPGKAPKLQIYSASHRYTGVPSRFSGSGSGTDFTLTISSLQPEDFATYYCQENYSTPWTFGQGTKVEIKR
notes: also called 2C8 clone G7
B11: phage-displayed 2C8 Fab clone C12 (Fab, V domains shown)
VH: EVQLVESGGGLVQPGGSLRLSCAASGYTFTSYVIHWVRQAPGKGLEWVGYNNPYNDGTNYNEKFKGRATISSDKSKNTAYLQMNSLRAEDTAVYYCSRPTMLPWFAYWGQGTLVTVSS
VL: DIQMTQSPSSLSASVGDRVTITCRASQAVSSAVAWYQQKPGKAPKLQIYSASHRYTGVPSRFSGSGSGTDFTLTISSLQPEDFATYYCQEHYSTPWTFGQGTKVEIKR
B12: phage-displayed 2C8 Fab clone H9 (Fab, V domains shown)
VH: EVQLVESGGGLVQPGGSLRLSCAASGYTFTSYVIHWVRQAPGKGLEWVGYNNPYNDGTNYNEKFKGRATISSDKSKNTAYLQMNSLRAEDTAVYYCSRPTMLPWFAYWGQGTLVTVSS
VL: DIQMTQSPSSLSASVGDRVTITCRASQAVSSAVAWYQQKPGKAPKLQIYSASHRYTGVPSRFSGSGSGTDFTLTISSLQPEDFATYYCQQHYYTPWTFGQGTKVEIKR
B13: phage-displayed 2C8 Fab clone G2 (Fab, V domains shown)
VH: EVQLVESGGGLVQPGGSLRLSCAASGYTFTSYVIHWVRQAPGKGLEWVGYNNPYNDGTNYNEKFKGRATISSDKSKNTAYLQMNSLRAEDTAVYYCSRPTMLPWFAYWGQGTLVTVSS
VL: DIQMTQSPSSLSASVGDRVTITCRASQAVSSAVAWYQQKPGKAPKLQIYSASHRYTGVPSRFSGSGSGTDFTLTISSLQPEDFATYYCQQYYSTPWTFGQGTKVEIKR
B14: phage-displayed 2C8 Fab clone H6 (Fab, V domains shown)
VH: EVQLVESGGGLVQPGGSLRLSCAASGYTFTSYVIHWVRQAPGKGLEWVGYNNPYNDGTNYNEKFKGRATISSDKSKNTAYLQMNSLRAEDTAVYYCSRPTMLPWFAYWGQGTLVTVSS
VL: DIQMTQSPSSLSASVGDRVTITCRASQAVSSAVAWYQQKPGKAPKLQIYSASHRYTGVPSRFSGSGSGTDFTLTISSLQPEDFATYYCQEVYSTPWTFGQGTKVEIKR
notes: also called 2C8 clone H6

The first experiment addresses T1, recombinant human lymphotoxin-α …. Description: plate-based ELISA against LTα.
As to B1, the “relative binding (EC50 of the variant / EC50 of version 5)” value turned out to be 1.07 ratio.

Regarding B2, the “relative binding (EC50 of the variant / EC50 of version 5)” value came to 2.31 ratio.

Turning to B3, the “relative binding (EC50 of the variant / EC50 of version 5)” value is 1.7 ratio.

For B4, the “relative binding (EC50 of the variant / EC50 of version 5)” value amounted to 1.93 ratio.

As for B5, the “relative binding (EC50 of the variant / EC50 of version 5)” value is 1.78 ratio.

As for B6, the “relative binding (EC50 of the variant / EC50 of version 5)” value was determined as 2.73 ratio.

A further experiment shares this target. The experiment in a line: phage competitive ELISA: rhLTα in solution competes with plate-coated LTα. As to the method: For the first round, phage were captured for 2 hours against 2 μg/ml plate-coated LTα at ambient temperature. The second and third rounds of selection were performed at ambient temperature by capturing phage for 30 minutes with 2 nM biotinylated LTα in solution phase, followed by capture on neutravidin-coated plates. The highest affinity clone was identified using a competitive ELISA. Constant concentrations of phage clones (normalized by solid-phase LTα binding OD) were incubated with increasing concentrations of LTα (0-50 nM) in solution before capture on a plate coated with 2 μg/ml LTα.
Consider B7, for which the IC50 (in general, the concentration that gives 50% inhibition) amounted to 3.14 nM.

Take B8: the IC50 stood at 5.34 nM.

As to B9, the IC50 was found to be 137 nM.

Take B10: the IC50 is 0.57 nM.

With B11, the IC50 was 3.41 nM.

Regarding B12, the IC50 was 3.8 nM.

On to B13, for which the IC50 is 4.51 nM.

Turning to B14, the IC50 worked out at 1.1 nM.
